The values that follow come from paper PMC8767016, “The Bacteroidetes Aequorivita sp. and Kaistella jeonii Produce Promiscuous Esterases With PET-Hydrolyzing Activity” (Frontiers in Microbiology, 2022).

The target in series [1] is T1, PET30ΔPorC (Kaistella jeonii, UniProt A0A0C1F4U8).
T1 construct: gene OA86_11720; C-terminal PorC (T9SS) sorting domain 300-366 deleted; signal peptide removed; His-tagged, E. coli host; monomer in asymmetric unit
The series can be described thus: pNP release at […] nm, relative activity. It is filed as biochemical. The settings on record: 30°C.

Substrate in series [2]: CCCCCC(=O)Oc1ccc([N+](=O)[O-])cc1
The series can be described thus: purified protein. The series is classed as biochemical, Kaistella jeonii. To be noted: 30°C, pH 8.

On to `CCCCCC(=O)Oc1ccc([N+](=O)[O-])cc1` [pNP-C6], for which the “pNP release at 405 nm, relative activity” value in series [1] is given as “Activity tests confirmed that it was not affected in its activities using pNP-C6”.

B1: PET30 (Kaistella jeonii) (protein)
chain: QCTGATVESLTNPGPYTVATLSEADGVRNGPKYAGSTIYYPTNATPPYASIAIVPGFTAAPSSVQEWGPFYASHGIVAIIIGTNSLYDQPEARALALLDALETIKQENGRATSPLIGKLDVTKLAVSGWSMGGGGAQRAAVLDNTISAVVALCPYLTSPQLNHTVPVLIFSGQSDPTAPPSQHANVHYNTTPGTTNKLLFEVKNGNHSVANSPTGGGGAVGKLALSWLKIYLEKNDCYCSVLATAIVNSTTVSSKISQSYQCNNALGVVDSKTRFNLYPNPTKDFVQVNVREMASYQLSSSTGQIVLKGIVTSSKNQIDLSKLPAGVYYLQINGETIKVIKKQ
notes: signal peptide removed, Met added; C-terminal 6xHis (pET21a), E. coli host, Ni-NTA; PorC (T9SS) domain kept
Consider B1, for which, in series [2], the Michaelis-Menten constant (Km) stood at 0.3 mM and the kcat stood at 8.9 s⁻¹.
